Laboratory results from PMC7081346, “Identification and characterization of N9-methyltransferase involved in converting caffeine into non-stimulatory theacrine in tea” (Nature Communications, 2020).

Tests used:
CkTbS [1] = target: T1, CkTbS (Camellia sinensis, UniProt A0A6C0WX00, H226R/T241I/S270C); experiment: in vitro methylation assay, HPLC; type: biochemical; details: SAM as methyl donor; triple mutant, composition from the three variable residues
T1 construct: gene TBS; full-length, recombinant from E. coli BL21(DE3); N-terminal His6-SUMO tag cleaved with ULP1
T1 sequence (A0A6C0WX00 whole entry H226R/T241I/S270C): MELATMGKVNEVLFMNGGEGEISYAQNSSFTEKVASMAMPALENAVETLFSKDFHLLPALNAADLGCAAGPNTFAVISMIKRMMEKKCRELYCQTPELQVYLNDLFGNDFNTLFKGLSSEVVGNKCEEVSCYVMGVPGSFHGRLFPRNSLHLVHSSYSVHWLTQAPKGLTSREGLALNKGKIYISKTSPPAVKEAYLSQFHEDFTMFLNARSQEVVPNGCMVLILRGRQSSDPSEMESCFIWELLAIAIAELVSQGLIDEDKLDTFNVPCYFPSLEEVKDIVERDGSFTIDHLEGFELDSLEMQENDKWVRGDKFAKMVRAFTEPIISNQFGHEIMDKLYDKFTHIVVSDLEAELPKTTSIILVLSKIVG

CkTbS [2] = target: T2, CkTbS (Camellia sinensis, UniProt A0A6C0WX00, T241I); experiment: in vitro methylation assay, HPLC; type: biochemical; details: SAM as methyl donor
T2 construct: gene TBS; full-length, recombinant from E. coli BL21(DE3); N-terminal His6-SUMO tag cleaved with ULP1
T2 sequence (A0A6C0WX00 whole entry T241I): as the sequence (A0A6C0WX00 whole entry H226R/T241I/S270C) above, with R226H, C270S counted along it

CkTbS [3] = target: T3, CkTbS (Camellia sinensis, UniProt A0A6C0WX00, S270C); experiment: in vitro methylation assay, HPLC; type: biochemical; details: SAM as methyl donor; printed as C270S, but CkTbS residue 270 is Ser
T3 construct: gene TBS; full-length, recombinant from E. coli BL21(DE3); N-terminal His6-SUMO tag cleaved with ULP1
T3 sequence (A0A6C0WX00 whole entry S270C): as the sequence (A0A6C0WX00 whole entry H226R/T241I/S270C) above, with R226H, I241T counted along it

[4] = substrate: Cn1cnc2[nH]c(=O)[nH]c(=O)c21; experiment: theobromine formation by HPLC-MS; type: biochemical, Camellia sinensis; details: 1.5 mM SAM, 200 μM MgCl2, 100 mM Tris-HCl pH 7.0, 27 °C
purified protein = substrate: C[S+](CC[C@H](N)C(=O)O)C[C@H]1O[C@@H](n2cnc3c(N)ncnc32)[C@H](O)[C@@H]1O; experiment: purified protein; details: 50 μM 1,3,7-trimethyluric acid, 200 μM MgCl2, 100 mM Tris-HCl pH 7.0, 27 °C
[5] = substrate: Cn1c(=O)c2c([nH]c(=O)n2C)n(C)c1=O; experiment: theacrine formation by HPLC-MS; type: biochemical, Camellia sinensis; details: 1.5 mM SAM, 200 μM MgCl2, 100 mM Tris-HCl pH 7.0, 27 °C
[6] = target: the molecule itself; experiment: crystal structure; CkTcS (eight N-terminal residues truncated) mixed with 2 mM SAH and 5 mM 1,3,7-trimethyluric acid; hanging drop, 4 °C, 0.1 M HEPES (pH 7.5), 1 M sodium citrate; 3.14 Å; homodimer in the crystal lattice

`Cn1c(=O)c2c([nH]c(=O)n2C)n(C)c1=O` [compound 5, 1,3,7-trimethyluric acid] was tested, and the “in vitro methylation assay, HPLC” value (CkTbS [1]) was “the double and triple mutations further increased the N-methyltransferase activity”, the “in vitro methylation assay, HPLC” value (CkTbS [2]) was “Single mutation of T241I or C270S on CkTbS led to a moderate increase” and the “in vitro methylation assay, HPLC” value (CkTbS [3]) was “Single mutation of T241I or C270S on CkTbS led to a moderate increase”.

B1: CkTcS (Camellia sinensis var. assamica) (protein)
chain: MELATRGKVKEVLFMNTGEGESSYVQNSSFTEKVASMAMPALENAVETLFSKDFHLFQAINAADLGCATGPNTFAVISTIKRMMEKKCRELNCQTLELQVYMNDLFGNDFNTLFKGLSSKVIGNKCEEVSCYVMGVPGSFHGRLFPRNSLHLVHSSYSVHWLTQAPKGLTSREGLALNKGRIYISKTSPPVVREAYLSQFHEDFTMFLNARSQEVVPNGCMVLILRGRQSSDPSDMQSCFIWELLAIAIAELVSQGLIDEDKLDTFNIPCYFPSLEEVKDIVERDGSFTIDHMEGFELDSLQMQENDKWVRGEKFAKIVRAFTEPIISNQFGHEIMDKLYDKFTHIVVSDLEAKLPKTTSIILVLSKIVG
notes: full-length, recombinant from E. coli BL21(DE3); N-terminal His6-SUMO tag cleaved with ULP1; homodimer
In the case of B1, the Km [4] is reported as 226.20 ± 33.95 µM, the kcat [4] is reported as 6.07 ± 0.21 ×10^-3 s^-1 and the Km (purified protein) is reported as 109.50 µM. The Km [5] was 4.68 ± 0.72 µM and the kcat [5] was 11.42 ± 0.37 ×10^-3 s^-1.

B2: CkCS (Camellia sinensis var. assamica) (protein)
chain: MELATREKVNEVLFMNRGEGESSYAQNSSFTQQVASMAQPALENAVETLFSKDFHLQALNAADLGCAAGPNTFAVISTIKRMMEKKCRELNCQTLELQVYLNDLFGNDFNTLFKGLSSEVIGNKCEEVPCYVMGVPGSFHGRLFPRNSLHLVYSSYSVHWLTQAPKGLTSREGLALNKGKIYISKTSPPVVREAYLSQFHEDFTMFLNYRSQEMVPNGCMVLILRGRQCFDPSDMQSCFTWELLALAIAELVSQGLIDEDKLDTFNIPSYFASLEEVKDIVERDGSFTIDHIEGFDLDSVEMQENDKWVRGEKFTKVVRAFSEPIISSQFGHEIMDKLYDKFTHIVVSDLEAKLPKTTSIILVLSKIVG
notes: full-length, recombinant from E. coli BL21(DE3); N-terminal His6-SUMO tag cleaved with ULP1
B2 was tested, and the Km [5] was 71.49 ± 15.60 µM and the kcat [5] was 0.12 ± 0.01 ×10^-3 s^-1.

B3: CkTbS (Camellia sinensis var. assamica) (protein)
chain: MELATMGKVNEVLFMNGGEGEISYAQNSSFTEKVASMAMPALENAVETLFSKDFHLLPALNAADLGCAAGPNTFAVISMIKRMMEKKCRELYCQTPELQVYLNDLFGNDFNTLFKGLSSEVVGNKCEEVSCYVMGVPGSFHGRLFPRNSLHLVHSSYSVHWLTQAPKGLTSREGLALNKGKIYISKTSPPAVKEAYLSQFHEDFTMFLNARSQEVVPNGCMVLILHGRQSSDPSEMESCFTWELLAIAIAELVSQGLIDEDKLDTFNVPSYFPSLEEVKDIVERDGSFTIDHLEGFELDSLEMQENDKWVRGDKFAKMVRAFTEPIISNQFGHEIMDKLYDKFTHIVVSDLEAELPKTTSIILVLSKIVG
notes: as for B2
In the case of B3, the Km [5] is reported as 162.20 ± 27.80 µM and the kcat [5] is reported as 0.18 ± 0.01 ×10^-3 s^-1.

B4: theacrine synthase CkTcS (N9-methyltransferase), N-terminal eight residues truncated (enzyme, Camellia assamica var. kucha (Kucha), UniProt A0A6C0WW36 9-370, looked up)
chain: VKEVLFMNTGEGESSYVQNSSFTEKVASMAMPALENAVETLFSKDFHLFQAINAADLGCATGPNTFAVISTIKRMMEKKCRELNCQTLELQVYMNDLFGNDFNTLFKGLSSKVIGNKCEEVSCYVMGVPGSFHGRLFPRNSLHLVHSSYSVHWLTQAPKGLTSREGLALNKGRIYISKTSPPVVREAYLSQFHEDFTMFLNARSQEVVPNGCMVLILRGRQSSDPSDMQSCFIWELLAIAIAELVSQGLIDEDKLDTFNIPCYFPSLEEVKDIVERDGSFTIDHMEGFELDSLQMQENDKWVRGEKFAKIVRAFTEPIISNQFGHEIMDKLYDKFTHIVVSDLEAKLPKTTSIILVLSKIVG
notes: CkTcS, theacrine synthase (N9-methyltransferase) of Camellia assamica var. kucha (Kucha); for crystallization eight residues on the N-terminal were truncated; source: E. coli BL21(DE3), purified (Nickel column, ion-exchange, size-exclusion); not shown: His6, N-terminal, cleaved; SUMO, N-terminal, cleaved
In the case of B4, the “stoichiometry N” value [6] is reported as 2.
